Consider two molecules from PMC6128908, “Potent PDZ-Domain PICK1 Inhibitors that Modulate Amyloid Beta-Mediated Synaptic Dysfunction” (Scientific Reports, 2018).

The target of test [1] is T1, His-MBP PICK1 construct (amino acids 1–356) (UniProt Q9NRD5 1-356).
T1 construct: it is used here for both assays; Details of the construct are in Supplemental Methods; also called truncated, dimeric form of PICK1 lacking the last 59 residues; source: baculovirus expression, purified (Nickel chromatography, size exclusion chromatography)
Briefly: FRET or BRET; high throughput screen with a FRET-based readout: His-MBP PICK1 (1–356) and FITC-labelled 9 amino acid GluA2 C-terminal peptide; compounds at 50 μM. The settings on record: both partners purified. A general note: Bioluminescence resonance energy transfer reports proximity on the nanometre scale.

Test [2] has as its target T2, PSD95 protein (domains 1–2 in tandem; aminoacids 61–249) (UniProt P78352 61-249).
T2 construct: PSD95 (postsynaptic density 95), PDZ domains 1-2 in tandem, amino acids 61-249; also called postsynaptic density 95 (PSD95) PDZ 1–2; source: E. coli, purified
Briefly: fluorescence polarisation; competition FP: FITC-labeled peptides fixed at 5 nM, non-saturating protein concentrations (PICK1 600 nM; PSD95 PDZ 1–2 8 µM; Shank3 8 µM), unlabeled peptides or compound varied; normalised to binding and tracer-only controls. Particulars: both partners purified. (In fluorescence polarisation assays a small probe gives low polarisation when free and higher when bound to something large.)

Where no end group is shown, it is not given here.

T2 sequence (P78352 61-249): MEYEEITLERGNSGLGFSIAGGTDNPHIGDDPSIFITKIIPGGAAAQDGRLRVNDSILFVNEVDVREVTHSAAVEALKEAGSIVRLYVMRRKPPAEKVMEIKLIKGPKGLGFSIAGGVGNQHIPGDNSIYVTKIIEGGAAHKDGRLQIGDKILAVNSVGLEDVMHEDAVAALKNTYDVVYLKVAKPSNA
T1 sequence (Q9NRD5 1-356): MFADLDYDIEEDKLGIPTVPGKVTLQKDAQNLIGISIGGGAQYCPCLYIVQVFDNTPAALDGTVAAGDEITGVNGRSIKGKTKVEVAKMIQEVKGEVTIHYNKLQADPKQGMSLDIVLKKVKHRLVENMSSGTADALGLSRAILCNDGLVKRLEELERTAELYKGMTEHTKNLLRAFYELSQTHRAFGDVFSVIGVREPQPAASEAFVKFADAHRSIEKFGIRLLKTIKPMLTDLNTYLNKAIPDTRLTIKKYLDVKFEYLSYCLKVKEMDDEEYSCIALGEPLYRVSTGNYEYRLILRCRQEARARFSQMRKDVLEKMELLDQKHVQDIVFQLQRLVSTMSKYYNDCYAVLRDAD

B1: FITC-labeled 9 amino acid C-terminal peptide of GluA2 (875–883) (peptide, UniProt P42262 875-883, looked up)
peptide: VYGIESVKI
modifications: also: FITC label, position not given here
notes: AMPA receptor subunit GluA2, C-terminal 9 amino acids, residues 875-883; also called GluA2 peptide; Fluorescein isothiocyanate-labeled peptide comprising the C-terminal amino acids of GluA2
For B1, in test [1], the binding result was “binds”.

B2: FITC-labeled GluN2B peptide (N-methyl-D-aspartate receptor subunit 2B, 1474–1482) (peptide)
peptide: KLSSIESDV
modifications: also: FITC label, position not given here
notes: N-methyl-D-aspartate receptor subunit 2B (GluN2B), C-terminal amino acids 1474-1482
For B2, the binding result in test [2] is reported as “binds”.
